Columns and labels:
[1] = molecular target: C-terminal deletion VP1 mutant (ΔC), truncated after amino acid position 305 (pentamers) (simian virus 40) (UniProt P03087); assay: negative-stain electron microscopy; purified pentamers diluted in PBS pH 7.2 at 20 µg/ml, stained with 1% uranyl acetate, Tecnai T12; step: VP1 chains to pentamer
[2] = molecular target: the molecule itself; assay: as above

| Molecule | stoichiometry N [1] | stoichiometry N [2] |
| --- | --- | --- |
| C-terminal deletion VP1 mutant (ΔC), truncated after amino acid position 305 (pentamers) (from UniProt P03087 1-305) (domain or fragment) | 5 | – |
| full-length wild-type SV40 VP1 (pentamers) (natural protein, major capsid protein VP1 of simian virus 40, full length, wild type, in the pGEX-4T2 plasmid; The virus stocks are strain 776, but no strain is stated for the bacterial construct; The preparations held pentamers and higher-order structures; no intact VLPs were seen; also called major capsid protein VP1; wild-type VP1 pentamers) MAPTKRKGSCPGAAPKKPKEPVQVPKLVIKGGIEVLGVKTGVDSFTEVECFLNPQMGNPDEHQKGLSKSLAAEKQFTDDSPDKEQLPCYSVARIPLPNINEDLTCGNILMWEAVTVKTEVIGVTAMLNLHSGTQKTHENGAGKPIQGSNFHFFAVGGEPLELQGVLANYRTKYPAQTVTPKNATVDSQQMNTDHKAVLDKDNAYPVECWVPDPSKNENTRYFGTYTGGENVPPVLHITNTATTVLLDEQGVGPLCKADSLYVSAVDICGLFTNTSGTQQWKGLPRYFKITLRKRSVKNPYPISFLLSDLINRRTQRVDGQPMIGMSSQVEEVRVYEDTEELPGDPDMIRYIDEFGQTTTRMQ | – | 5 |

From publication PMC4807364, “Interaction between Simian Virus 40 Major Capsid Protein VP1 and Cell Surface Ganglioside GM1 Triggers Vacuole Formation” (mBio, 2016)
